The record followed here is patent publication US20260217797A1 (Takeda / Millennium, published 2026).

Assay [1] deals with SARS-CoV-2 wild type spike protein (on reporter virus particles) (SARS-CoV-2, UniProt P0DTC2 14-1273). Nature of the assay: cell-based or functional assay.
Another assay deals with SARS-CoV1 Spike [change] (SARS-CoV-1, UniProt P59594 14-667). Put plainly: Octet BLI, IgG, monovalent.
In a further assay the target is SARS-CoV-2 Spike S1-His (SARS-CoV-2, UniProt P0DTC2 16-685). Nature of the assay: Octet BLI, IgG, monovalent.

B1: A-21 (antibody, V domains shown)
VH: EVQLVESGGGLVQPGGSLRLSCAASGFTFSRYWMHWVRQAPGKGLVWVSRINSDGSSTTYADSVKGRFTISRDNAKNTLYLQMNSLRAEDTAVYYCARELYYYDSRGAEEGEGWFDPWGQGTLVTVSS
VL: QSVLTQPPSVSGAPGQRVTISCTGISSNIGAGYDVHWYQQLPGTAPKLLIYGNSNRPSGVPDRFSASKSGTSAPLAITGLQAEDEADYYCQSSDRSLSGSVFGTGTKVTVL
With B1, in assay [1], the “WT PsV IC50” value amounted to 2780 pM. For the same molecule, the Kd was determined as 9030 pM with SARS-CoV1 Spike [change] and 529 pM with SARS-CoV-2 Spike S1-His.

B2: A-21.3 (antibody, V domains shown)
VH: EVQLVESGGGLVQPGGSLRLSCAASGFTFRRYWMHWVRQAPGKGLEWVSRINSDGSSTTYADSVEGRFTISRDNAKNTLYLQMNSLRAEDTAVYYCARELYYYDRRGAEEGEGWFDPWGQGTLVTVSS
VL: QSVLTQPPSVSGAPGQRVTISCTGISSNIGAEYDVHWYQQLPGTAPKLLIYGNSNRPRGVPDRFSASKSGTSAPLAITGLQAEDEADYYCQVSDRYLSGSVFGTGTKVTVL
As to B2, the “WT PsV IC50” value in assay [1] came out at 946 pM. Moreover, the Kd in the assay with SARS-CoV1 Spike [change] was determined as 893 pM; with SARS-CoV-2 Spike S1-His, 241 pM.

B3: A-21.2 (antibody, V domains shown)
VH: EVQLVESGGGLVQPGGSLRLSCAASGFTFSRYWMHWVRQAPGKGLVWVSRINSDGSSTTYADSVKGRFTISRDNAKNTLYLQMNSLRAEDTAVYYCARELYYYDSRGAEEGEGWFDPWGQGTLVTVSS
VL: QSVLTQPPSVSGAPGQRVTISCTGISSNIGAQYDVHWYQQLPGTAPKLLIYGNSNRPRGVPDRFSASKSGTSAPLAITGLQAEDEADYYCQSSDRSVSGSVFGTGTKVTVL
In the case of B3, the “WT PsV IC50” value in assay [1] is 2630 pM. Also, the equilibrium dissociation constant (Kd) came to 7930 pM in the assay with SARS-CoV1 Spike [change] and 195 pM in the assay with SARS-CoV-2 Spike S1-His.

B4: A-20.3 (antibody, V domains shown)
VH: QVQLVQSGGGVVQPGRSLRLSCAASGFTFDNFAMHWVRQAPGKGLEWVAVILYDGINDYYADSVKGRFTISRGNSKNTLSLQMNSLRAEDTAVYYCARAQNYYDRHGTLQLDAFDIWGQGTLVTVSS
VL: AIQMTQSPSSLSASVGDRVTITCRASDGIRNDLGWYQQKPGKAPKLLIYEASSLQSGVPSRFSGSGSGTDFTLTISSLQPEDFATYYCLQNYNYPLTFGGGTKVEIK
With B4, the “WT PsV IC50” value in assay [1] came out at 1510 pM. In addition, the Kd worked out at 3520 pM with SARS-CoV1 Spike [change] and 366 pM with SARS-CoV-2 Spike S1-His.

B5: A-22.1 (antibody, V domains shown)
VH: not shown
VL: EIVLTQSPGTLSLSPGERATLSCRASQTVRSDLAWYQQKPGQAPRLLIYGASTRATDISDRFSGSGSGTEFTLTISSLQSEDFAVYYCQQYYEWPPHSDSFGGGTKVEIK
Regarding B5, the “WT PsV IC50” value in assay [1] came to 14300 pM. The Kd is 3680 pM with SARS-CoV1 Spike [change] and 278 pM with SARS-CoV-2 Spike S1-His.

B6: A-22.2 (antibody, V domains shown)
VH: not shown
VL: EIVLTQSPGTLSLSPGERATLSCSASQTVRSDLAWYQQKPGQAPRLLIYGGSTRATDISDRFSGSGSGTEFTLTISSLQSEDFAVYYCQQYYEWPPHSDSFGGGTKVEIK
Turning to B6, in assay [1], the “WT PsV IC50” value is 3300 pM. The Kd with SARS-CoV1 Spike [change] worked out at 10100 pM; in the assay with SARS-CoV-2 Spike S1-His it was 254 pM.

B7: A-22.3 (antibody, V domains shown)
VH: not shown
VL: EIVLTQSPGTLSLSPGERATLSCRASQTVRSDLAWYQQKPGQAPRLLIYGGSTRATDISDRFSGSGSGTEFTLTISSLQSEDFAVYYCQQYYEWPPHSDSFGGGTKVEIK
With B7, the “WT PsV IC50” value in assay [1] came to 7100 pM. For the same molecule, the results for the Kd in the assay with SARS-CoV1 Spike [change] and with SARS-CoV-2 Spike S1-His were 4770 pM and 245 pM, respectively.

B8: A-24.1 (antibody, V domains shown)
VH: EVQLVESGGGLVKPGRSLRLSCAASGFTFADYTMSWFRQAPGKGLEWVGFIRSEPYGGTTEYAASVKGRFTISRDDSKSIAYLQMNSLKTEDTAVYYCSRDPWYCSGGDCYAVTGSWFDPWGQGTLVTVSS
VL: DIQMTQSPSSLSASVGDRVTITCQASQDIKKYLNWYQQKPGKAPKLLIYDVSNLETGVPSRFSGSGSGTDFTFTISSLQPEDVAIYYCQQYDNLPQTFGQGTKVEIK
In the case of B8, the “WT PsV IC50” value in assay [1] amounted to 65.7 pM. For the same molecule, the binding result in the assay with SARS-CoV1 Spike [change] is listed as “no binding”. The molecule further returned a Kd with SARS-CoV-2 Spike S1-His of 999 pM.

B9: A-24.2 (antibody, V domains shown)
VH: EVQLVESGGGLVKPGRSLRLSCAASGFTFADYTMSWFRQAPGKGLEWVGFIRSEPYGGTTEYAASVKGRFTISRDDSKSIAYLQMNSLKTEDTAVYYCSRDPWYCSGGDCYAVTGSWFDPWGQGTLVTVSS
VL: DIQMTQSPSSLSASVGDRVTITCQASQDIKQYLNWYQQKPGKAPKLLIYDQSNLETGVPSRFSGSGSGTDFTFTISSLQPEDVAIYYCQQYWNLPQTFGQGTKVEIK
For B9, in assay [1], the “WT PsV IC50” value worked out at 116 pM. Further, the binding result in the assay with SARS-CoV1 Spike [change] is on record as “no binding”. For the same molecule, in the assay with SARS-CoV-2 Spike S1-His, the Kd turned out to be 289 pM.

B10: A-24 (antibody, V domains shown)
VH: EVQLVESGGGLVKPGRSLRLSCAASGFTFADYAMSWFRQAPGKGLEWVGFIRSKPYGGTTEYAASVKGRFTISRDDSKSIAYLQMNSLKTEDTAVYYCSRDPWYCSGGDCYAVTGSWFDPWGQGTLVTVSS
VL: DIQMTQSPSSLSASVGDRVTITCQASQDIKKYLNWYQQKPGKAPKLLIYDVSNLETGVPSRFSGSGSGTDFTFTISSLQPEDVAIYYCQQYDNLPQTFGQGTKVEIK
In the case of B10, the “WT PsV IC50” value in assay [1] amounted to 39 pM. Besides, in the assay with SARS-CoV1 Spike [change], the binding result was “no binding”. The Kd with SARS-CoV-2 Spike S1-His was found to be 5360 pM.

B11: A-24.3 (antibody, V domains shown)
VH: EVQLVESGGGLVKPGRSLRLSCAASGFTFADYTMSWFRQAPGKGLEWVGFIRSEPYGGTTEYAASVKGRFTISRDDSKSIAYLQMNSLKTEDTAVYYCSRDPWYCSGGDCYAVTGSWFDPWGQGTLVTVSS
VL: DIQMTQSPSSLSASVGDRVTITCQASRDIKKYLNWYQQKPGKAPKLLIYDVSNLETGVPSRFSGSGSGTDFTFTISSLQPEDVAIYYCQQYDQLPQTFGQGTKVEIE
As to B11, in assay [1], the “WT PsV IC50” value was determined as 45.4 pM. Besides, the binding result with SARS-CoV1 Spike [change] is on record as “no binding”. In the assay with SARS-CoV-2 Spike S1-His, this molecule came in with a Kd of 479 pM.

B12: A-23 (antibody, V domains shown)
VH: EVQLVESGGGLVQPGRSLRLSCAASGFTFDDYAMHWVRQAPGKGLEWVSGISWNSGTIGYADSVKGRFIISRDNAKNSLYLQMNSLRGEDMALYYCGKDRKREDPSLGGMDVWGQGTTVTVSS
VL: SYVLTQPPSVSVAPGQTARITCGGNNIGSKSVHWYQQKPGQAPVLVVYDDTDRPSGIPERFSGSNSGNTATLTISRVEAGDEADYYCQVWDSSSDHYVFGTGTKVTVL
In the case of B12, the “WT PsV IC50” value in assay [1] was found to be 539 pM. Moreover, in the assay with SARS-CoV1 Spike [change], the binding result is listed as “no binding”. Binding with SARS-CoV-2 Spike S1-His was put at a Kd of 2110 pM.

B13: A-23.2 (antibody, V domains shown)
VH: EVQLVESGGGLVQPGRSLRLSCAASGFTFDDYAMHWVRQAPGKGLEWVSGTSWNSGTIGYADSVKGRFIISRDNAKNSLYLQMNSLRGEDMALYYCVKDRKREDPSLGGMDVWGQGTTVTVSS
VL: SYVLTQPPSVSVAPGQTARITCGGNNIGSKSVHWYQQKPGQAPVLVVYDDTDRPSGIPERFSGSNSGNTATLTISRVEAGDEADYYCQVWDVSSDSYVFGTGTKVTVL
With B13, the “WT PsV IC50” value in assay [1] worked out at 416 pM. For the same molecule, the binding result with SARS-CoV1 Spike [change] is listed as “no binding”. In the assay with SARS-CoV-2 Spike S1-His, this molecule registered a Kd of 454 pM.

B14: A-23.1 (antibody, V domains shown)
VH: EVQLVESGGGLVQPGRSLRLSCAASGFTIDDYAMHWVRQAPGKGLEWVSGISWNGGTIGYADSVKGRFIISRDNAKNSLYLQMNSLRGEDMALYYCGKDRKREDPSLGGMDVWGQGTTVTVSS
VL: SYVLTQPPSVSVAPGQTARITCLGNNIGSKSVHWYQQKPGQAPVLVVYDDTDRPSGIPERFSGSNSGNTATLTISRVEAGDEADYYCQVWDSESDHYVFGTGTKVTVL
Take B14: in assay [1], the “WT PsV IC50” value came to 423 pM. Moreover, in the assay with SARS-CoV1 Spike [change], the binding result is recorded as “no binding”. In addition, binding with SARS-CoV-2 Spike S1-His was characterised by a dissociation constant (Kd) of 829 pM.
